Results published in US20110293610A1 (published 2011).
Numbering of substitutions follows the chain as printed.

T1: TNF-beta (human, UniProt P01374 35-205)
T1 construct: also called TNFβ; Tumour Necrosis Factor-beta
T1 sequence (looked up): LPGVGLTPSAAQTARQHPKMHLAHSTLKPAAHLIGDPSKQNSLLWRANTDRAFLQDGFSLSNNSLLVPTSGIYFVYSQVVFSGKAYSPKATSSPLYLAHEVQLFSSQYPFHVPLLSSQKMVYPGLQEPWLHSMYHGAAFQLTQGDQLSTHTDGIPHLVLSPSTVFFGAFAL

T2: Fas ligand (human, UniProt P48023 134-281, limits assumed)
T2 sequence (looked up): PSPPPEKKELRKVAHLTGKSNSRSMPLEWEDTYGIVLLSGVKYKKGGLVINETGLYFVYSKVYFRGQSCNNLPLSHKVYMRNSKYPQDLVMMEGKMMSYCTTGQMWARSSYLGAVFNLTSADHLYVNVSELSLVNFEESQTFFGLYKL

B1: I008C03 (scFv)
scFv: QMQLVRSGGGVVQPGRSLRLSCAASGFTFSSYGMHWVRQAPGKGLEWVSVTYSGGNTNYADSVRGRFTISRDNSKNTLYLQMNSLRAEDTAVYYCAREGSYDILTGYYVGVGRMDVWGKGTLVTVSSGGGGSGGGGSGGGGSSELTQDPAVSVALGQTVRITCQGDSLRSYYTNWFQQKPGQAPLLVVYAKNKRPSGIPDRFSGSSSGNTASLTITGAQAEDEADYYCNSRDSSGNHVVFGGGTKLTVLG
B2: I016H07 (scFv)
scFv: GVQLVQSGAEVKKPGASVKVSCKASGYTFTHYAINWLRQAPGQRPEWMGTINTGNGNTKYSQNFQGRLTITRDTSASTVNMELSSLRSEDTAVYYCAGGYHDPLTSYNYNWFDPWGQGTMVTVSSGGGGSGGGGSGGGGSSELTQDPAVSVALGQTVRITCQGDSLRSYYTNWFQQKPGQAPLLVVYAKNKRPSGIPDRFSGSSSGNTASLTITGAQAEDEADYYCHSRDSSGNHVLFGGGTKLTVLG
B3: I037E07 (scFv)
scFv: QVQLVQSGAEVKKPGASVKVSCKASGYTFTNYGITWVRQAPGQGLEWMGWISAYNGNRNYAQKLQGRVTMTTDTSTSTAYMELRSLRSDDTAVYYCVRDGIDILLVPAALMDVWGRGTMVTVSSGGGGSGGGGSGGGGSQSVLTQPASVSGSPGQSITISCTGTSSDVGGYNYVSWYQQHPGKAPKLMIYEGSKRPSGVSNRFSGSKSGNTASLTISGLQAEDEADYYCSSYTTRSTRVFGGGTKLTVLG
B4: I037E12 (scFv)
scFv: B3 scFv with Q1E, R116K, M119L, S193N
B5: I082H08 (scFv)
scFv: EVQLVESGGGLVQPGGSLRLSCAASGFTFSDYGMHWVRQRPGKGLEWIAFIGSDGSNKYYGDTVKGRFTISRDNAKNSLYLQMNSLRAEGTAVYYCARDWDMDVWGQGTMVTVSSGGGGSGGGGSGGGGSSHVILTQPRSVSGSPGQSVTISCTGTSSDVGGYHYVSWYQQHPGKAPRLMIYEVTKRPSGVSNRFSGSKSGNTASLTISGVQAEDEADYYCSSYTSASTVIFGGGTKLTVLG
B6: I099D03 (scFv)
scFv: QVQLVQSGAEVKKPGASVRVSCKSSGYTFTNYGISWVRQAPGQGLEWMGWISNNNGKTYYAQKVQGRVTMTTDTSTSTDYMELRGLRSDDTAIYYCARDNGGGTIGFDYWGRGTLVTVSSGGGGSGGGGSGGGGSAQAVLTQPSSVSGAPGQRVTMSCTGSSSNIGAGYDVHWYQQLPGTAPKLLIYDNTNRPSGVPDRFSGSRSGTSASLAITGLQAEDEADYFCQSYDITLSAVFGTGTKVTVLG

Target: T3, B Lymphocyte Stimulator, soluble form (human) (human, UniProt Q9Y275 134-285, biotinylated with NHS-biotin where used as biotinylated B Lymphocyte Stimulator)
T3 construct: Coated on plastic, captured on streptavidin plates, amine-coupled to a CM5 chip or free in solution, depending on the assay; also called BLyS; immobilized B Lymphocyte Stimulator
Assay: phage competition ELISA

binding result | Binder
binds | B1
binds | B2
binds | B3
binds | B4

Target: T4, mouse B Lymphocyte Stimulator (mouse, UniProt Q9WU72 127-309, limits assumed)
T4 construct: also called murine B Lymphocyte Stimulator; immobilized mouse B Lymphocyte Stimulator
Assay: phage ELISA

T4 sequence (Q9WU72 127-309 limits assumed): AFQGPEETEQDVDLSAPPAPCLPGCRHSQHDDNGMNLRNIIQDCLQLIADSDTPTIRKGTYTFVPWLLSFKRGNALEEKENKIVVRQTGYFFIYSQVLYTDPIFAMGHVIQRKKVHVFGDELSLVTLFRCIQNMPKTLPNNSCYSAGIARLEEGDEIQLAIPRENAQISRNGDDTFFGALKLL

binding result | Binder
no binding | B1
no binding | B2
no binding | B3
no binding | B4

Target: T1, TNF-beta
Assay: phage ELISA

binding result | Binder
no binding | B1
no binding | B2
no binding | B3
no binding | B4

Target: T5, membrane-bound B Lymphocyte Stimulator on U937 plasma membrane preparations (human, UniProt Q9Y275 1-285)
T5 construct: Natural protein in plasma membrane fractions of the human cell line U937 coated on ELISA plates; also called U937 plasma membranes; U937 membranes
Assay: phage ELISA

binding result | Binder
binds | B1
binds | B2
binds | B3
binds | B4

Target: T6, TNF-alpha (human, UniProt P01375 77-233)
T6 construct: also called TNFα; TNF-α
Assay: phage ELISA

T6 sequence (P01375 77-233 limits assumed): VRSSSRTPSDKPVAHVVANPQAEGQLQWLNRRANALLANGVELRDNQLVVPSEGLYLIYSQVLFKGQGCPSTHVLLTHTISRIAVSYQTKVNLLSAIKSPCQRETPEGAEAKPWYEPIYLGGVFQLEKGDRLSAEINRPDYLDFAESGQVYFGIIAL

binding result | Binder
no binding | B1
no binding | B2
no binding | B3
no binding | B4

Target: T2, Fas ligand
Assay: phage ELISA

binding result | Binder
no binding | B1
no binding | B2
no binding | B3
no binding | B4

Target: T7, TRAIL (human, UniProt P50591 114-281)
T7 construct: also called TNF-related apoptosis inducing ligand
Assay: phage ELISA

T7 sequence (P50591 114-281 limits assumed): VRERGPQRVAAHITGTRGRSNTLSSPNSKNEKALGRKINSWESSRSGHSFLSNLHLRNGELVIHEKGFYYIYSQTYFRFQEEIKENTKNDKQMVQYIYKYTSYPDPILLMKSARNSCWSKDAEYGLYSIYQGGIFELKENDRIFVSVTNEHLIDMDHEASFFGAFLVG

binding result | Binder
no binding | B1
no binding | B2
no binding | B3
no binding | B4

Target: T8, HIS-tagged B Lymphocyte Stimulator (human, UniProt Q9Y275 71-285)
T8 construct: Expressed in E. coli; also called HIS-B Lymphocyte Stimulator; histidine-tagged B Lymphocyte Stimulator; not shown: histidine tag from the pQE9 vector
Assay: BIAcore, purified scFv over low density HIS-BLyS surface
Description: The chip containing the low density HIS-B Lymphocyte Stimulator surface was inserted into the BIAcore. […] The dilution series was then injected sequentially over the blank control (flow cell 1) and low density HIS-B Lymphocyte Stimulator surface (flow cell 2) using the following program: […]

Kd | Binder
1 nM | B5
4 nM | B6
